Reference: US20100172907A1 (Hoffmann-La Roche, published 2010)
Groups on a side chain read outwards from the residue. No end group written: not given here. NSMP = not defined here

T1: BSA-conjugated Aβ heptapeptide AEFRHDC (C-terminal Cys coupled to NSMP-activated BSA)
T1 construct: also called Peptide 2-7
T1 peptide: AEFRHDC

T2: BSA-conjugated Aβ heptapeptide LVFFAEC (reading uncertain; also: BSA conjugate)
T2 construct: also called Peptide 17-22
T2 peptide: LVFFAEC([NSMP-BSA])

T3: BSA-conjugated Aβ heptapeptide VFFAEDC (C-terminal Cys coupled to NSMP-activated BSA)
T3 construct: also called Peptide 18-23
T3 peptide: VFFAEDC

T4: BSA-conjugated Aβ heptapeptide FFAEDVC (C-terminal Cys coupled to NSMP-activated BSA)
T4 construct: also called Peptide 19-24
T4 peptide: FFAEDVC


Experiments:
human Aβ (1-40) peptide [1] = target: T5, human Aβ (1-40) peptide (human); test: SPR, kinetic fit, immobilized fibers;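 also: surface plasmon resonance on a Biacore chip bearing in vitro formed Aβ1-40 or Aβ1-42 fibers, KD taken as koff/kon by fitting time-resolved sensor responses, based on total Fab concentration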
T5 construct: also called Aβ1-40 fibers
Experimental: (§1) Biacore2000 and Biacore3000 instruments were used for these measurements. Aβ1-40 and Aβ1-42 fibers were generated in vitro by incubation of synthetic peptides at a concentration of 200 μg/ml in 10 mM Na-acetate buffer (pH 4.0) for three days at 37° C. […] For binders with slow kinetics KD values were calculated by curve fitting of the time-dependent sensor responses, i.e. from the ratio of koff/kₒₙ. Binders with fast kinetics were analyzed by fitting the concentration-dependent sensor responses at equilibrium (adsorption-isotherms). KD values were calculated from the Biacore sensograms based on the total Fab concentration as determined by a protein assay. […] Briefly, time-dependent protein binding to Aβ1-40 fibers immobilized on the Biacore chip was measured during the association phase under mass-limited conditions at different flow rates of the analyte solution.

Aβ (1-42) peptide [2] = target: T6, Aβ (1-42) peptide (human); test: SPR, kinetic fit, immobilized fibers;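 also: surface plasmon resonance on a Biacore chip bearing in vitro formed Aβ1-40 or Aβ1-42 fibers, KD taken as koff/kon by fitting time-resolved sensor responses, based on total Fab concentration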
T6 construct: also called Aβ1-42 fibers; Aβ4
Experimental: as §1

[3] = target: T1, BSA-conjugated Aβ heptapeptide AEFRHDC; test: ELISA
Experimental: (§2) 50 μl of NSMP activated BSA (6.7 mg/ml) was diluted with 50 μl of PBS, 0.1% sodium azide and 10 μl of peptide solution (1 mM in DMSO) was added. As negative control activated BSA was mock-treated without peptide addition. After 4 hrs at room temperature the reaction was stopped by addition of 10 μl of 10 mM Cystein. An aliquot of the conjugate reaction mixture was diluted 1:100 with 0.1M sodium bicarbonate buffer and immediately filled into the wells (100 μl) of ELISA plates (Nunc Immuno-Plate). After standing 16 hrs at 4° C. 100 μl blocking buffer (as above) was added to each well and incubated for another 30 minutes. The plates were washed with 2×300 μl/well TBST (as above) and filled with 100 μl antibody at 10 μg/ml or 2 μg/ml in blocking buffer. The plates were kept 16 hours at 4° C. and washed with 2×300 μl TBST. 100 μl/well HRP-conjugated anti-human Ig H+L (Pierce, dilution 1:1000 with blocking buffer) was added and incubated for 1 hour at ambient temperature. The plates were washed with 3×300 μl/well TBST. Colour development was started by addition of 100 μl tetra-methyl benzidine/hydrogen peroxide reagent.

[4] = target: T2, BSA-conjugated Aβ heptapeptide LVFFAEC; test: ELISA
Experimental: as §2

[5] = target: T3, BSA-conjugated Aβ heptapeptide VFFAEDC; test: ELISA
Experimental: as §2

[6] = target: T4, BSA-conjugated Aβ heptapeptide FFAEDVC; test: ELISA
Experimental: as §2

human Aβ (1-40) peptide [7] = target: T5, human Aβ (1-40) peptide; test: SPR Scatchard, higher affinity (bivalent)
Experimental: (§3) Binders with fast kinetics were analyzed by fitting the concentration-dependent sensor responses at equilibrium (adsorption-isotherms). KD values were calculated from the Biacore sensograms based on the total Fab concentration as determined by a protein assay. […] Briefly, time-dependent protein binding to Aβ1-40 fibers immobilized on the Biacore chip was measured during the association phase under mass-limited conditions at different flow rates of the analyte solution.
(§4) KD values of IgG binding to Aβ1-40 and Aβ1-42 fibers were determined in the Biacore. Briefly, a kinetic model for the stepwise formation of a bivalent complex was used, and KD values were calculated by Scatchard type analysis of equilibrium binding. Due to the very slow association process at low antibody concentration (several hours to reach equilibrium) equilibrium binding data were obtained by extrapolation of the association curves to long time intervals. The on- and off rates for the formation of the monovalent and bivalent complex were determined via the curve fit procedure and used for the extrapolation. Based on these Req values a Scatchard analysis was performed and KD values for the formation of the monovalent and the bivalent complex were determined.

Aβ (1-42) peptide [8] = target: T6, Aβ (1-42) peptide; test: SPR Scatchard, higher affinity (bivalent)
Experimental: as §3, §4
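For OD ratio 17-22/BSA in this document: ELISA binding of human antibody (10 or 2 µg/ml) to plate-coated BSA–peptide conjugates, detected with HRP anti-human Ig and TMB colour, mock-treated BSA as negative control.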
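For OD ratio 18-23/BSA in this document: ELISA binding of human antibody (10 or 2 µg/ml) to plate-coated BSA–peptide conjugates, detected with HRP anti-human Ig and TMB colour, mock-treated BSA as negative control.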
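For OD ratio 2-7/BSA in this document: ELISA binding of human antibody (10 or 2 µg/ml) to plate-coated BSA–peptide conjugates, detected with HRP anti-human Ig and TMB colour, mock-treated BSA as negative control.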
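For Peptide-ratio 17-22/2-7 in this document: ELISA binding of human antibody (10 or 2 µg/ml) to plate-coated BSA–peptide conjugates, detected with HRP anti-human Ig and TMB colour, mock-treated BSA as negative control.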

Kd (human Aβ (1-40) peptide [1]) [pM]	Kd (Aβ (1-42) peptide [2]) [pM]	Kd (human Aβ (1-40) peptide [7]) [pM]	Kd (Aβ (1-42) peptide [8]) [pM]	Binder	further results
		1200 to 3500	740 to 2900	MS-R IgG1 7.12.L1 (antibody, V domains shown, full-length human IgG1) VH: QVQLVESGGGLVQPGGSLRLSCAASGFTFSSYGMSWVRQAPGKGLEWVSNISGSGSSTYYADSVKGRFTISRDNSKNTLYLQMNSLRAEDTAVYYCARGKGNTHKPYGYVRYFDVWGQGTLVTVSS VL: DIVLTQSPATLSLSPGERATLSCRASQYVFRRYLAWYQQKPGQAPRLLISGSSNRATGVPARFSGSGSGTDFTLTISSLEPEDFAVYYCLQLYNIPNTFGQGTKVEIKR	
		220 to 950	220 to 820	MS-R IgG1 3.6.H8 × 3.6.L2 (antibody, V domains shown, full-length human IgG1; VH entry starts at QLVESGG) VH: ELVESGGGLVQPGGSLRLSCAASGFTFSSYAMSWVRQAPGKGLEWVSAISEYSKFKYYADSVKGRFTISRDNSKNTLYLQMNSLRAEDTAVYYCARLTHYARYYRYFDVWGQGTLVTVSS VL: DIVLTQSPATLSLSPGERATLSCRASQFLSRYYLAWYQQKPGQAPRLLIYGASSRATGVPARFSGSGSGTDFTLTISSLEPEDFAVYYCQQTYNYPPTFGQGTKVEIKR	
		90 to 300	100 to 660	MS-R IgG1 7.2.H4 (antibody, V domains shown, full-length human IgG1) VH: QVELVESGGGLVQPGGSLRLSCAASGFTFSSYAMSWVRQAPGKGLEWVSAINSKGSRIYYADSVKGRFTISRDNSKNTLYLQMNSLRAEDTAVYYCARGKGNTHKPYGYVRYFDVWGQGTLVTVSS VL: DIVLTQSPATLSLSPGERATLSCRASQSVSSSYLAWYQQKPGQAPRLLIYGASSRATGVPARFSGSGSGTDFTLTISSLEPEDFATYYCQQIYSFPHTFGQGTKVEIK	
1250	1040			MS-Roche #3.6H5×3.6L1 Fab (Fab, V domains shown, cross-cloned Fab) VH: QLVESGGGLVQPGGSLRLSCAASGFTFSSYAMSWVRQAPGKGLEWVSAISESGKTKYYADSVKGRFTISRDNSKNTLYLQMNSLRAEDTAVYYCARLTHYARYYRYFDVWGQGTLVTVSS VL: DIVLTQSPATLSLSPGERATLSCRASQFIQRFYLAWYQQKPGQAPRLLIYGASSRATGVPARFSGSGSGTDFTLTISSLEPEDFAVYYCQQTYNYPPTFGQGTKVEIKR	
1260	840			MS-Roche #3.6H5×3.6L2 Fab (Fab, V domains shown, cross-cloned Fab; VH entry starts at QLVESGG) VH: QLVESGGGLVQPGGSLRLSCAASGFTFSSYAMSWVRQAPGKGLEWVSAISESGKTKYYADSVKGRFTISRDNSKNTLYLQMNSLRAEDTAVYYCARLTHYARYYRYFDVWGQGTLVTVSS VL: DIVLTQSPATLSLSPGERATLSCRASQFLSRYYLAWYQQKPGQAPRLLIYGASSRATGVPARFSGSGSGTDFTLTISSLEPEDFAVYYCQQTYNYPPTFGQGTKVEIKR	
		120 to 630	120 to 560	MS-R IgG1 7.4.H2 × 7.2.L1 (antibody, V domains shown, full-length human IgG1; VH entry starts at QLVESGG) VH: ELVESGGGLVQPGGSLRLSCAASGFTFSSYAMSWVRQAPGKGLEWVSAINYNGARIYYADSVKGRFTISRDNSKNTLYLQMNSLRAEDTAVYYCARGKGNTHKPYGYVRYFDVWGQGTLVTVSS VL: DIVLTQSPATLSLSPGERATLSCRASQYVDRTYLAWYQQKPGQAPRLLIYGASSRATGVPARFSGSGSGTDFTLTISSLEPEDFATYYCQQIYSFPHTFGQGTKVEIKR	
1400	1400			MS-Roche #7.4H2×7.2L1 Fab (Fab, V domains shown, cross-cloned Fab; VH entry starts at QLVESGG) VH: QLVESGGGLVQPGGSLRLSCAASGFTFSSYAMSWVRQAPGKGLEWVSAINYNGARIYYADSVKGRFTISRDNSKNTLYLQMNSLRAEDTAVYYCARGKGNTHKPYGYVRYFDVWGQGTLVTVSS VL: DIVLTQSPATLSLSPGERATLSCRASQYVDRTYLAWYQQKPGQAPRLLIYGASSRATGVPARFSGSGSGTDFTLTISSLEPEDFATYYCQQIYSFPHTFGQGTKVEIKR	
1290	1430			MS-Roche #7.2H2×7.2L1 Fab (Fab, V domains shown, cross-cloned Fab) VH: QLVESGGGLVQPGGSLRLSCAASGFTFSSYAMSWVRQAPGKGLEWVSAINGTGMKKYYADSVKGRFTISRDNSKNTLYLQMNSLRAEDTAVYYCARGKGNTHKPYGYVRYFDVWGQGTLVTVSS VL: DIVLTQSPATLSLSPGERATLSCRASQYVDRTYLAWYQQKPGQAPRLLIYGASSRATGVPARFSGSGSGTDFTLTISSLEPEDFATYYCQQIYSFPHTFGQGTKVEIKR	
410	470			MS-Roche #7.11H1×7.11L1 Fab (Fab, V domains shown, cross-cloned Fab; VH entry starts at QLVESGG) VH: QLVESGGGLVQPGGSLRLSCAASGFTFSSYAMSWVRQAPGKGLEWVSGINAAGFRTYYADSVKGRFTISRDNSKNTLYLQMNSLRAEDTAVYYCARGKGNTHKPYGYVRYFDVWGQGTLVTVSS VL: DIVLTQSPATLSLSPGERATLSCRASQRILRIYLAWYQQKPGQAPRLLIYGASSRATGVPARFSGSGSGTDFTLTISSLEPEDFATYYCQQVYSPPHTFGQGTKVEIKR	

Further lines, the binder ahead of its results:

Binder	Kd (human Aβ (1-40) peptide [1]) [pM]	Kd (Aβ (1-42) peptide [2]) [pM]	Kd (human Aβ (1-40) peptide [7]) [pM]	Kd (Aβ (1-42) peptide [8]) [pM]	further results
MS-Roche #7.4H2×7.12L2 Fab (Fab, V domains shown, cross-cloned Fab) VH: QLVESGGGLVQPGGSLRLSCAASGFTFSSYAMSWVRQAPGKGLEWVSAINYNGARIYYADSVKGRFTISRDNSKNTLYLQMNSLRAEDTAVYYCARGKGNTHKPYGYVRYFDVWGQGTLVTVSS VL: DIVLTQSPATLSLSPGERATLSCRASQRFFYKYLAWYQQKPGQAPRLLISGSSNRATGVPARFSGSGSGTDFTLTISSLEPEDFAVYYCLQLYNIPNTFGQGTKVEIKR	1400	1800			
MS-Roche #7.9H2×7.12L2(L1+2) Fab (Fab, V domains shown, VL assembled from the legend's definition and cloning strategy 3) VH: QLVESGGGLVQPGGSLRLSCAASGFTFSSYAMSWVRQAPGKGLEWVSAINADGNRKYYADSVKGRFTISRDNSKNTLYLQMNSLRAEDTAVYYCARGKGNTHKPYGYVRYFDVWGQGTLVTVSS VL: DIVLTQSPATLSLSPGERATLSCRASQRFFYKYLAWYQQKPGQAPRLLISGSSNRATGVPARFSGSGSGTDFTLTISSLEPEDFATYYCLQIYNMPITFGQGTKVEIKR	400	400			
MS-R IgG 7.11H2 (antibody, V domains shown, full-length human IgG; also called 7.11H2 IgG) VH: QVELVESGGGLVQPGGSLRLSCAASGFTFSSYAMSWVRQAPGKGLEWVSAINANGYKKYYADSVKGRFTISRDNSKNTLYLQMNSLRAEDTAVYYCARGKGNTHKPYGYVRYFDVWGQGTLVTVSS VL: DIVLTQSPATLSLSPGERATLSCRASQSVSSSYLAWYQQKPGQAPRLLIYGASSRATGVPARFSGSGSGTDFTLTISSLEPEDFATYYCQQVYSPPHTFGQGTKVEIKR					OD ratio 2-7/BSA [3]: 10; OD ratio 17-22/BSA [4]: 6; Peptide-ratio 17-22/2-7 [4]: 0.6; OD ratio 18-23/BSA [5]: 7; Peptide-ratio 18-23/2-7 [5]: 0.7; OD ratio 19-24/BSA [6]: 6; Peptide-ratio 19-24/2-7 [6]: 0.6
MS-Roche #8.1H1×8.2L1 Fab (Fab, V domains shown, cross-cloned Fab) VH: QLVESGGGLVQPGGSLRLSCAASGFTFSSYAMSWVRQAPGKGLEWVSAISRSGSNIYYADSVKGRFTISRDNSKNTLYLQMNSLRAEDTAVYYCARLLSRGYNGYYHKFDVWGQGTLVTVSS VL: DIVLTQSPATLSLSPGERATLSCRASQRVSGRYLAWYQQKPGQAPRLLIYGASSRATGVPARFSGSGSGTDFTLTISSLEPEDFATYYCQQLSSYPPTFGQGTKVEIKR	1300	1600			
MS-Roche #7.11H1×7.2L1 Fab (Fab, V domains shown, cross-cloned Fab; VH entry starts at QLVESGG) VH: QLVESGGGLVQPGGSLRLSCAASGFTFSSYAMSWVRQAPGKGLEWVSGINAAGFRTYYADSVKGRFTISRDNSKNTLYLQMNSLRAEDTAVYYCARGKGNTHKPYGYVRYFDVWGQGTLVTVSS VL: DIVLTQSPATLSLSPGERATLSCRASQYVDRTYLAWYQQKPGQAPRLLIYGASSRATGVPARFSGSGSGTDFTLTISSLEPEDFATYYCQQIYSFPHTFGQGTKVEIKR	1750	1390			
MS-Roche #7.11H2×7.2L1(L1) Fab (Fab, V domains shown) VH: QLVESGGGLVQPGGSLRLSCAASGFTFSSYAMSWVRQAPGKGLEWVSAINANGYKKYYADSVKGRFTISRDNSKNTLYLQMNSLRAEDTAVYYCARGKGNTHKPYGYVRYFDVWGQGTLVTVSS VL: DIVLTQSPATLSLSPGERATLSCRASQYVDRTYLAWYQQKPGQAPRLLIYGASSRATGVPARFSGSGSGTDFTLTISSLEPEDFATYYCQQIYSFPHTFGQGTKVEIKR	1000	600			
MS-R IgG1 7.11.H1 × 7.11.L1 (antibody, V domains shown, full-length human IgG1; VH entry starts at QLVESGG) VH: ELVESGGGLVQPGGSLRLSCAASGFTFSSYAMSWVRQAPGKGLEWVSGINAAGFRTYYADSVKGRFTISRDNSKNTLYLQMNSLRAEDTAVYYCARGKGNTHKPYGYVRYFDVWGQGTLVTVSS VL: DIVLTQSPATLSLSPGERATLSCRASQRILRIYLAWYQQKPGQAPRLLIYGASSRATGVPARFSGSGSGTDFTLTISSLEPEDFATYYCQQVYSPPHTFGQGTKVEIKR			110 to 700	130 to 700	
MS-R #7.11.H1×7.2.L1 IgG1 (antibody, V domains shown, full-length human IgG1; VH entry starts at QLVESGG; also called MAB 11) VH: ELVESGGGLVQPGGSLRLSCAASGFTFSSYAMSWVRQAPGKGLEWVSGINAAGFRTYYADSVKGRFTISRDNSKNTLYLQMNSLRAEDTAVYYCARGKGNTHKPYGYVRYFDVWGQGTLVTVSS VL: DIVLTQSPATLSLSPGERATLSCRASQYVDRTYLAWYQQKPGQAPRLLIYGASSRATGVPARFSGSGSGTDFTLTISSLEPEDFATYYCQQIYSFPHTFGQGTKVEIKR			140 to 660	150 to 670	
